Measurements published in IntAct's records for PubMed 19534813.

B1: Twist-related protein 1 (Homo sapiens), Q15672 (parent)
chain: MMQDVSSSPVSPADDSLSNSEEEPDRQQPPSGKRGGRKRRSSRRSAGGGAGPGGAAGGGVGGGDEPGSPAQGKRGKKSAGCGGGGGAGGGGGSSSGGGSPQSYEELQTQRVMANVRERQRTQSLNEAFAALRKIIPTLPSDKLSKIQTLKLAARYIDFLYQVLQSDELDSKMASCSYVAHERLSYAFSVWRMEGAWSMSASH

Variants of: B1
Settings: with itf2_human TCF4, P15884
Sequence of itf2_human TCF4, P15884 (P15884 whole entry): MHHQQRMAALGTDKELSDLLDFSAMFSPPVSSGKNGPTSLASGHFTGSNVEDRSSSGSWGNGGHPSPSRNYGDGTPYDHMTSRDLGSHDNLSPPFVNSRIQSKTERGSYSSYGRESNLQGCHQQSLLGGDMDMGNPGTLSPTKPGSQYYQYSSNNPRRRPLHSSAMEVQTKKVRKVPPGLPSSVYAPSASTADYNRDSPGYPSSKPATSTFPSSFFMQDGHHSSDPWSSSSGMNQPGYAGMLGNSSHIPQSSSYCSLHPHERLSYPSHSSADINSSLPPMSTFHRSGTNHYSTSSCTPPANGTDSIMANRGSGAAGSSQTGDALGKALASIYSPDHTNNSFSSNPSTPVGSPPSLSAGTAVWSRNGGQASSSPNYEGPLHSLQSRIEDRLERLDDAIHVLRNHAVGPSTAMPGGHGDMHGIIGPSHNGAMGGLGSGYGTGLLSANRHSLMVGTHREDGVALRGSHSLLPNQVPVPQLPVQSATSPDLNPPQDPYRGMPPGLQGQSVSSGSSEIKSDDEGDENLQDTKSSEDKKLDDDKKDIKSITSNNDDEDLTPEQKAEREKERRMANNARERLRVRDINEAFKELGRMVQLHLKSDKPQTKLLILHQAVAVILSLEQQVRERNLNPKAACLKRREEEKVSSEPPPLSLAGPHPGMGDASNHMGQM

Effect of a mutation on the interaction, with no effect:
MMQDVSSSPVSPADDSLSNSEEEPDRQQPPSGKRGGRKRRSSRRSAGGGAGPGGAAGGGVGGGDEPGSPAQGRRGKKSAGCGGGGGAGGGGGSSSGGGSPQSYEELQTQRVMANVRERQRTQSLNEAFAALRKIIPTLPSDKLSKIQTLKLAARYIDFLYQVLQSDELDSKMASCSYVAHERLSYAFSVWRMEGAWSMSASH [K73R]
MMQDVSSSPVSPADDSLSNSEEEPDRQQPPSGKRGGRRRRSSRRSAGGGAGPGGAAGGGVGGGDEPGSPAQGKRGKKSAGCGGGGGAGGGGGSSSGGGSPQSYEELQTQRVMANVRERQRTQSLNEAFAALRKIIPTLPSDKLSKIQTLKLAARYIDFLYQVLQSDELDSKMASCSYVAHERLSYAFSVWRMEGAWSMSASH [K38R]
MMQDVSSSPVSPADDSLSNSEEEPDRQQPPSGKRGGRKRRSSRRSAGGGAGPGGAAGGGVGGGDEPGSPAQGKRGKRSAGCGGGGGAGGGGGSSSGGGSPQSYEELQTQRVMANVRERQRTQSLNEAFAALRKIIPTLPSDKLSKIQTLKLAARYIDFLYQVLQSDELDSKMASCSYVAHERLSYAFSVWRMEGAWSMSASH [K77R]
